Among the data in doi:10.1101/742957 are percent dimer, percent trimer and stoichiometry N values, retold here.

The target of this test is Recombinant human transferrin (human) (UniProt P02787). Nature of the test: SEC-MALS.

Several values for one entry are separate records, joined by “and”; a condition that tells them apart may be missing. Equal entries are not always repeated.

Take “Recombinant human transferrin (from UniProt P02787 20-698) (natural protein)”: the percent dimer came to 12%; the percent trimer was determined as 2%; the stoichiometry N is 2 and 3.
